Data taken from the Human Domainome abundance scans (Beltran et al. 2025).
± gives the uncertainty stated by the source.

B1: Transcription elongation regulator 1-like protein, residues 448 to 504; numbered along this chain, Q5VWI1 (parent)
chain: LPLEERVTHFRDMLLERGVSAFSTWEKELHKIVFDPRYLLLNSEERKQIFEQFVKTR

Variants of: B1
Test: abundance fitness (aPCA) (normalised: wild type 0, dead -1); higher = more abundant; growth selection in yeast, the domain comes from the species named
Conditions: Homo sapiens
LPLEERVTHFRDMLLERGVSAFSTWEKELMKIVFDPRYLLLNSEERKQIFEQFVKTR [H30M] showed an abundance fitness of -0.515 ± 0.46.
For LPLEERVTHFRDMLLERGVSAGSTWEKELHKIVFDPRYLLLNSEERKQIFEQFVKTR [F22G], the abundance fitness was 0.04 ± 0.069.
LPLEETVTHFRDMLLERGVSAFSTWEKELHKIVFDPRYLLLNSEERKQIFEQFVKTR [R6T] gave an abundance fitness of -0.772 ± 0.28.
LPLEERVTHFRDMLLERGVSAFSTWEKELHKIVFDPRYLMLNSEERKQIFEQFVKTR [L40M] gave an abundance fitness of -0.295 ± 0.3.
Work on LPLEERVTHFRDTLLERGVSAFSTWEKELHKIVFDPRYLLLNSEERKQIFEQFVKTR [M13T] yielded an abundance fitness of -0.759 ± 0.14.
In the case of LPLEERVTHFRDMLRERGVSAFSTWEKELHKIVFDPRYLLLNSEERKQIFEQFVKTR [L15R], the abundance fitness is reported as 0.139 ± 0.088.
LPLEERVGHFRDMLLERGVSAFSTWEKELHKIVFDPRYLLLNSEERKQIFEQFVKTR [T8G] showed an abundance fitness of -0.35 ± 0.13.
LPLEERVTHFRDMLLERGVSAFSTWEKELHKIVFDPRYLLLNSEERKQIFEQFVKQR [T56Q] gave an abundance fitness of 0.022 ± 0.12.
Variant LPLEERVTHFRDMLLERGVSAFSTWWKELHKIVFDPRYLLLNSEERKQIFEQFVKTR [E26W] has an abundance fitness of -0.84 ± 0.26.
Work on LPLEERVTHFSDMLLERGVSAFSTWEKELHKIVFDPRYLLLNSEERKQIFEQFVKTR [R11S] yielded an abundance fitness of -0.695 ± 0.32.
For LPLEERVIHFRDMLLERGVSAFSTWEKELHKIVFDPRYLLLNSEERKQIFEQFVKTR [T8I], the abundance fitness was -0.386 ± 0.2.
For LPLEERVTHFRDMLLERGVSAFSTWEKELHKIVFDPRYLALNSEERKQIFEQFVKTR [L40A], the abundance fitness was -0.504 ± 0.094.
LPLEERVTHFRDMLAERGVSAFSTWEKELHKIVFDPRYLLLNSEERKQIFEQFVKTR [L15A] showed an abundance fitness of -0.226 ± 0.19.
In the case of LPLEERVTHFRDMLLERGVSAFSTWEKELHKIVFDPRYLLLNSEERKQIKEQFVKTR [F50K], the abundance fitness is reported as -0.835 ± 0.4.
In the case of LPLEERVTHFRDMLLERGVSAFSTWEKELHKIVFDPRILLLNSEERKQIFEQFVKTR [Y38I], the abundance fitness is reported as -0.645 ± 0.44.
LPLEERVTHFRDMLLERGVSAFSTWEKELHKIVFDPRYLLLNEEERKQIFEQFVKTR [S43E] gave an abundance fitness of 0.341 ± 0.085.
LPLEERVTHFRMMLLERGVSAFSTWEKELHKIVFDPRYLLLNSEERKQIFEQFVKTR [D12M] gave an abundance fitness of 0.191 ± 0.12.
For LPLEERVTHFRDMLLERGVSAFSTWEKELKKIVFDPRYLLLNSEERKQIFEQFVKTR [H30K], the abundance fitness was -0.403 ± 0.25.
LPLEERVTHFRDMLLERAVSAFSTWEKELHKIVFDPRYLLLNSEERKQIFEQFVKTR [G18A] showed an abundance fitness of -0.588 ± 0.12.
Variant LPLEERVTHQRDMLLERGVSAFSTWEKELHKIVFDPRYLLLNSEERKQIFEQFVKTR [F10Q] has an abundance fitness of -0.884 ± 0.34.
For LPLEERVTHFRDMLLERGVSEFSTWEKELHKIVFDPRYLLLNSEERKQIFEQFVKTR [A21E], the abundance fitness was -0.165 ± 0.17.
For LPLEERVTHFRDMLLERGVSAFSTWEKELHKIVFDPRYLLLNSSERKQIFEQFVKTR [E44S], the abundance fitness was -0.187 ± 0.12.
In the case of LPLEERVTHFRDMLLERGVSAFSTWEKELHKIVFDPRFLLLNSEERKQIFEQFVKTR [Y38F], the abundance fitness is reported as -0.129 ± 0.31.
Variant LPLEERVTHFRVMLLERGVSAFSTWEKELHKIVFDPRYLLLNSEERKQIFEQFVKTR [D12V] has an abundance fitness of -0.641 ± 0.26.
LPFEERVTHFRDMLLERGVSAFSTWEKELHKIVFDPRYLLLNSEERKQIFEQFVKTR [L3F] gave an abundance fitness of 0.04 ± 0.41.
In the case of LPLEERVRHFRDMLLERGVSAFSTWEKELHKIVFDPRYLLLNSEERKQIFEQFVKTR [T8R], the abundance fitness is reported as -0.631 ± 0.34.
Variant LPLEERVTHFRDMLLERGVSAFSTWSKELHKIVFDPRYLLLNSEERKQIFEQFVKTR [E26S] has an abundance fitness of -0.658 ± 0.2.
LPLEERVTHFQDMLLERGVSAFSTWEKELHKIVFDPRYLLLNSEERKQIFEQFVKTR [R11Q] showed an abundance fitness of -0.244 ± 0.15.
In the case of LPLEERVTHFRDMLLERGVSAFSTWEKELHKIVFDPRYLLKNSEERKQIFEQFVKTR [L41K], the abundance fitness is reported as -1.11 ± 0.36.
For LPLEERVTHFRDMLLERGVSAFSTWEQELHKIVFDPRYLLLNSEERKQIFEQFVKTR [K27Q], the abundance fitness was 0.101 ± 0.29.
In the case of LPLEERETHFRDMLLERGVSAFSTWEKELHKIVFDPRYLLLNSEERKQIFEQFVKTR [V7E], the abundance fitness is reported as -0.406 ± 0.4.
LPLEERVTHFRDMLLERGVSAFSTWEKELHKIVFDPRYLLLNSEERKQIFEQFIKTR [V54I] showed an abundance fitness of -0.199 ± 0.15.
Work on LPLEERITHFRDMLLERGVSAFSTWEKELHKIVFDPRYLLLNSEERKQIFEQFVKTR [V7I] yielded an abundance fitness of 0.199 ± 0.16.
Work on LPLEERVTHFRDMLLERGVSAFSTWEKELHKIVFDPRYLLLNSEERKQIFLQFVKTR [E51L] yielded an abundance fitness of -0.522 ± 0.081.
Variant LPLEERVTHFRDMLLERGVSAFSTWEKELHKIVFDPRYLLLNSEWRKQIFEQFVKTR [E45W] has an abundance fitness of -0.483 ± 0.26.
For LPLEERVTHFRDMLLERGVSAFSTWEKELHKIVFDPRYLLLNSEPRKQIFEQFVKTR [E45P], the abundance fitness was -0.791 ± 0.28.
In the case of LWLEERVTHFRDMLLERGVSAFSTWEKELHKIVFDPRYLLLNSEERKQIFEQFVKTR [P2W], the abundance fitness is reported as 0 ± 0.31.
Work on LPLEERVTHFRDMLLERGVSAFSTWEKELHKIVFDPRYLLLNSEERKVIFEQFVKTR [Q48V] yielded an abundance fitness of -0.065 ± 0.11.
For LPLEERVTHFRDMLLERGVSAFSTWEKELHKIVFDPRYLLLNSEERKQIFEQFVYTR [K55Y], the abundance fitness was -0.667 ± 0.28.
With LPLEERVTHFRDMLLERGVSAFSTWEKELHKIVFDKRYLLLNSEERKQIFEQFVKTR [P36K] the abundance fitness was 0.011 ± 0.17.
Variant LPLEERYTHFRDMLLERGVSAFSTWEKELHKIVFDPRYLLLNSEERKQIFEQFVKTR [V7Y] has an abundance fitness of -0.075 ± 0.35.
LPLEERVTHFRDMLLERQVSAFSTWEKELHKIVFDPRYLLLNSEERKQIFEQFVKTR [G18Q] gave an abundance fitness of -0.454 ± 0.31.
For LPLEERVTHFRDMLLERGVSAFSTWEKELHKIVFDPRYLLLNSEERKQIFEDFVKTR [Q52D], the abundance fitness was 0.193 ± 0.15.
Work on LPLEERVTHFRDMLLERGVSAFSTWEKELHKIVFDPRYLLLNSEERKQIFEQFVKGR [T56G] yielded an abundance fitness of -0.303 ± 0.089.
In the case of LPLEERVTHFRDMLLERGVSAFSTWEKELHKISFDPRYLLLNSEERKQIFEQFVKTR [V33S], the abundance fitness is reported as 0.028 ± 0.18.
In the case of LPLEERVTHFRDMLLERGVSAFSTWEKMLHKIVFDPRYLLLNSEERKQIFEQFVKTR [E28M], the abundance fitness is reported as -1.04 ± 0.4.
LPLEERVTHFRDMLLERGVSAFSTWVKELHKIVFDPRYLLLNSEERKQIFEQFVKTR [E26V] showed an abundance fitness of -0.914 ± 0.24.
